{
  "source": "paper PMC2722044",
  "key": {"[1]": {"biological_target": "VLRB.2D, lamprey variable lymphocyte receptor B specific for hen egg white lysozyme (lamprey)", "test": "ITC"}, "[2]": {"biological_target": "VLRB.2DMut13, in vitro affinity-matured variant of VLRB.2D (lamprey)", "test": "ITC"}},
  "data": [
    {"substance": "hen egg white lysozyme (from UniProt P00698 19-147) (enzyme)", "values": [
      {"measurement": "Kd", "setting": "[1]", "value": 430, "unit": "nM"},
      {"measurement": "Kd", "setting": "[2]", "value": 34, "unit": "nM"}
    ]}
  ]
}
